Measured values: publication PMC5463365, “Assembly and use of high-density recombinant peptide chips for large-scale ligand screening is a practical alternative to synthetic peptide libraries” (BMC Genomics, 2017)
Where no end group is shown, it is not given here.

B1: 5'FAM-labeled Strep-tag I peptide (peptide)
peptide: {FAM}-AWRHPQFGG
notes: Strep-tag I; source: synthetic peptide (GenScript Inc.)

Tests used:
[1] = target: T1, Streptavidin on Streptavidin-coated biosensors (UniProt P22629 25-183); assay: BLI; BLItz system; Streptavidin-coated biosensors exposed to chemically synthesized 5'FAM peptides for 2 min in ES2 buffer; only a single analyte concentration tested; conditions: both partners purified
T1 construct: Streptavidin coated on disposable biosensors; also called Streptavidin biosensors; source: bought: Streptavidin-coated biosensors for ForteBio's BLItz system

[2] = target: T2, Recombinant Streptavidin, unconjugated (UniProt P22629 25-183); assay: fluorescence polarisation; 20 nM 5'FAM-labeled peptide with rising concentrations of Streptavidin/StrepTactin, triplicates; ES2 buffer (100 mM potassium phosphate pH 7.4, 100 μg/ml bovine γ globulin, 0.02% NaN3); at least 2 h at RT or o/n at 4 °C; conditions: both partners purified
T2 construct: Streptavidin, commercial recombinant protein; Used in the fluorescence polarisation assays; source: bought: recombinant, unconjugated format (Thermo Fisher Scientific, BioRad or Perkin Elmer, 'respectively')
T2 sequence (P22629 25-183): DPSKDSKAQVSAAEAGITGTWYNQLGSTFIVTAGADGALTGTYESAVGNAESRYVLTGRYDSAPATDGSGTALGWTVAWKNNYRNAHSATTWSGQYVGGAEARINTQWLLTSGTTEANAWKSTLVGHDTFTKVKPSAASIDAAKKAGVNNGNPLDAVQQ

T1 sequence (P22629 25-183): as above

| Binder | Kd [1] [µM] | Kd [2] [µM] |
| --- | --- | --- |
| {FAM}-WSHPQFEK (Strep-tag II; source: synthetic peptide) [5'FAM-labeled Strep-tag II peptide] | 25.4 | 13.3 |
| {FAM}-VSHPQAPF (B5; source: synthetic peptide) [5'FAM-labeled B5 peptide] | 79.5 | – |
| B1 | – | 2.75 |
